B1: MalT (wild type), N-terminally His-tagged (natural protein, Escherichia coli, UniProt P06993 1-901, looked up)
chain: MLIPSKLSRPVRLDHTVVRERLLAKLSGANNFRLALITSPAGYGKTTLISQWAAGKNDIGWYSLDEGDNQQERFASYLIAAVQQATNGHCAICETMAQKRQYASLTSLFAQLFIELAEWHSPLYLVIDDYHLITNPVIHESMRFFIRHQPENLTLVVLSRNLPQLGIANLRVRDQLLEIGSQQLAFTHQEAKQFFDCRLSSPIEAAESSRICDDVSGWATALQLIALSARQNTHSAHKSARRLAGINASHLSDYLVDEVLDNVDLATRHFLLKSAILRSMNDALITRVTGEENGQMRLEEIERQGLFLQRMDDTGEWFCYHPLFGNFLRQRCQWELAAELPEIHRAAAESWMAQGFPSEAIHHALAAGDALMLRDILLNHAWSLFNHSELSLLEESLKALPWDSLLENPQLVLLQAWLMQSQHRYGEVNTLLARAEHEIKDIREDTMHAEFNALRAQVAINDGNPDEAERLAKLALEELPPGWFYSRIVATSVLGEVLHCKGELTRSLALMQQTEQMARQHDVWHYALWSLIQQSEILFAQGFLQTAWETQEKAFQLINEQHLEQLPMHEFLVRIRAQLLWAWARLDEAEASARSGIEVLSSYQPQQQLQCLAMLIQCSLARGDLDNARSQLNRLENLLGNGKYHSDWISNANKVRVIYWQMTGDKAAAANWLRHTAKPEFANNHFLQGQWRNIARAQILLGEFEPAEIVLEELNENARSLRLMSDLNRNLLLLNQLYWQAGRKSDAQRVLLDALKLANRTGFISHFVIEGEAMAQQLRQLIQLNTLPELEQHRAQRILREINQHHRHKFAHFDENFVERLLNHPEVPELIRTSPLTQREWQVLGLIYSGYSNEQIAGELEVAATTIKTHIRNLYQKLGVAHRQDAVQHAQQLLKMMGYGV
notes: Purified with 0.1 mM ADP or 0.4 mM ATP; the elution at 103 kDa fits the whole protein; In PDB 8BOB only residues 1-423 are well defined; also called WT MalT; MalT WT; source: E. coli BL21 (DE3) ΔmalT220, purified (Ni Sepharose, gel filtration)
B2: MalY (wild type), GST tag removed (enzyme, Escherichia coli, UniProt P23256 1-390, looked up)
chain: MFDFSKVVDRHGTWCTQWDYVADRFGTADLLPFTISDMDFATAPCIIEALNQRLMHGVFGYSRWKNDEFLAAIAHWFSTQHYTAIDSQTVVYGPSVIYMVSELIRQWSETGEGVVIHTPAYDAFYKAIEGNQRTVMPVALEKQADGWFCDMGKLEAVLAKPECKIMLLCSPQNPTGKVWTCDELEIMADLCERHGVRVISDEIHMDMVWGEQPHIPWSNVARGDWALLTSGSKSFNIPALTGAYGIIENSSSRDAYLSALKGRDGLSSPSVLALTAHIAAYQQGAPWLDALRIYLKDNLTYIADKMNAAFPELNWQIPQSTYLAWLDLRPLNIDDNALQKALIEQEKVAIMPGYTYGEEGRGFVRLNAGCPRSKLEKGVAGLINAIRAVR
notes: MalY, PLP-dependent dimeric enzyme of E. coli; full-length malY amplified from E. coli genomic DNA, cloned in pGEX-6P-1; the printed mass of 2 × 43.5 kDa fits the untagged protein; Each subunit holds the cofactor PLP; also called MalY WT; source: E. coli BL21 (DE3) ΔmalT220, purified (Glutathione Sepharose, gel filtration); not shown: GST, N-terminal, cleaved

Legend:
ADP = experiment: luciferase assay of protein-bound nucleotide; set-up: unit not given here; conditions: parent: est. 98; read off a plot
ATP = experiment: luciferase assay of protein-bound nucleotide; set-up: unit not given here; conditions: parent: est. 0; read off a plot
[1] = target: B2; experiment: cryo-EM structure; purified MalT-MalY complex at about 0.5 mg/ml, ADP and PLP bound; 2.94 Å, C2 symmetry; conditions: both partners purified
[2] = target: the molecule itself; experiment: SEC; Superdex 200 Increase 10/300 GL, in the presence of 1 mM maltotriose and 0.1 mM ADP; same molar amounts of MalT and MalY WT or MalY-D182A/E185A/S218A, separately or together; fractions on SDS-PAGE
[3] = target: the molecule itself; experiment: SEC; Superdex 200 Increase 10/300 GL, 4 °C, in the presence of ADP; MalT (buffer A, 0.1 mM ADP) and MalY (buffer TKCl, 10 μM PLP) each alone, or incubated at a 1:1 molar ratio on ice for 30 min and run in buffer TKCl with 0.1 mM ADP and 10 μM PLP
[4] = target: B1; experiment: as above; conditions: both partners purified
[5] = target: the molecule itself; experiment: SEC; Superose 6 Increase 10/300 GL, 4 °C; MalT pre-incubated at 20 °C for 20 min in buffer I; run in buffer E with 1 mM maltotriose and 0.4 mM ATP; self-association of MalT

MalT (wild type), N-terminally His-tagged (from UniProt P06993) R19A
other: Nucleotide content (ADP): 28 | other: Nucleotide content (ATP): 7.5

MalT (wild type), N-terminally His-tagged (from UniProt P06993) K6A
other: Nucleotide content (ADP): 13 | other: Nucleotide content (ATP): 58

B1
stoichiometry N [1]: 1 MalT per MalY (printed as 2:2) | binding result [2]: binds

B2
stoichiometry N [3]: 2 | binding result [4]: binds

B3: MalT-R9S, N-terminally His-tagged (natural protein, Escherichia coli, UniProt P06993 1-901, looked up)
chain: MLIPSKLSSPVRLDHTVVRERLLAKLSGANNFRLALITSPAGYGKTTLISQWAAGKNDIGWYSLDEGDNQQERFASYLIAAVQQATNGHCAICETMAQKRQYASLTSLFAQLFIELAEWHSPLYLVIDDYHLITNPVIHESMRFFIRHQPENLTLVVLSRNLPQLGIANLRVRDQLLEIGSQQLAFTHQEAKQFFDCRLSSPIEAAESSRICDDVSGWATALQLIALSARQNTHSAHKSARRLAGINASHLSDYLVDEVLDNVDLATRHFLLKSAILRSMNDALITRVTGEENGQMRLEEIERQGLFLQRMDDTGEWFCYHPLFGNFLRQRCQWELAAELPEIHRAAAESWMAQGFPSEAIHHALAAGDALMLRDILLNHAWSLFNHSELSLLEESLKALPWDSLLENPQLVLLQAWLMQSQHRYGEVNTLLARAEHEIKDIREDTMHAEFNALRAQVAINDGNPDEAERLAKLALEELPPGWFYSRIVATSVLGEVLHCKGELTRSLALMQQTEQMARQHDVWHYALWSLIQQSEILFAQGFLQTAWETQEKAFQLINEQHLEQLPMHEFLVRIRAQLLWAWARLDEAEASARSGIEVLSSYQPQQQLQCLAMLIQCSLARGDLDNARSQLNRLENLLGNGKYHSDWISNANKVRVIYWQMTGDKAAAANWLRHTAKPEFANNHFLQGQWRNIARAQILLGEFEPAEIVLEELNENARSLRLMSDLNRNLLLLNQLYWQAGRKSDAQRVLLDALKLANRTGFISHFVIEGEAMAQQLRQLIQLNTLPELEQHRAQRILREINQHHRHKFAHFDENFVERLLNHPEVPELIRTSPLTQREWQVLGLIYSGYSNEQIAGELEVAATTIKTHIRNLYQKLGVAHRQDAVQHAQQLLKMMGYGV
notes: MalT of Escherichia coli, variant of plasmid pOM206 made by site-directed mutagenesis; source: E. coli BL21 (DE3) ΔmalT220, purified (Ni Sepharose, gel filtration)
binding result [5]: binds

From publication PMC10427625, “Structural basis for negative regulation of the Escherichia coli maltose system” (Nature Communications, 2023)
